Measured values reported in patent US7429474B2, “2-O sulfatase compositions and methods of analyzing therewith” (Massachusetts Institute of Technology, priority 2003, dated 2008).
“Also recorded” adds a separate entry of the source.

Columns and labels:
2-O sulfatase [1] = experiment: effect of ionic strength, metal ions, EDTA, buffers and cysteine-reactive agents on 2-O sulfatase activity; type: biochemical, F. heparinum; conditions: for effect of additive on enzyme activity: EDTA up to 1 mM, CaCl2, MgCl2, MnCl2 up to 10 mM, DTNB, DTT, 50 mM phosphate buffer pH 6.5
Experimental: For pilot experiments measuring the relative effect of ionic strength on 2-O sulfatase activity, the NaCl concentration was varied from 0.05 to 1 M in 50 mM MES buffer (pH 6.5) that included 500 μM of the disulfated disaccharide ΔU2SHNS,6S and 50 nM enzyme. The effect of pH on sulfatase activity was assessed as a function of catalytic efficiency by measuring kinetic parameters in the following two overlapping pH buffer systems ranging from 5.0 to 8.0: 50 mM MES at pH 5.0, 5.5, 6.5, and 7.0; 50 mM MOPS at pH 6.5, 7.0, 7.5 and 8.0. Assays included 25 nM enzyme, 50 mM NaCl and varying concentrations of the disulfated disaccharide substrate ΔU2SHNS. Km and kcat values were extrapolated from Vo vs. [S] curves fit to the Michaelis-Menten equation by a non-linear least squares regression and the relative kcat/Km ratios plotted as a function of buffer pH. […] Relative activities were measured at a single saturating substrate concentration (4 mM) using ΔU2SHNS.
We also examined 2-O sulfatase activity relative to ionic composition.

[2] = biological target: T1, 2-O sulfatase (2-O ΔN^1-24) (Pedobacter heparinus, UniProt C6Y1N2); experiment: 2-O sulfatase assay and disaccharide substrate kinetics by capillary electrophoresis; type: biochemical, F. heparinum
Experimental: (§1) 2-O sulfatase assay and determination of biochemical reaction conditions—2-O sulfatase activity was measured using the unsaturated heparin trisulfated disaccharide ΔU2SHNS,6S or the disulfated disaccharide ΔU2SHNS as well as the disulfated disaccharide ΔUHNS,6S lacking a sulfate at the 2-OH position. Standard reactions included 50 mM imidazole, pH 6.5, 50 mM NaCl, 500 μM disaccharide, and 25 nM of enzyme (2-O ΔN^1-24) in a 20 μL reaction volume. The reaction was carried out for 30 seconds at 30° C. Prior to its addition, the enzyme was serially diluted to 250 nM in ice cold 1X imidazole buffer. The assay was initiated by the addition of 2 μL of this 10 X enzyme stock to 18 μL of reaction mixture. The enzyme was inactivated by heating at 95° C. 11 for five minutes in pre-heated 0.5 mL eppendorf tubes. Desulfation at the 2-OH position of the disaccharide was measured by capillary electrophoresis. Resolution of substrate and product were achieved under standard conditions described for HSGAG compositional analyses (Rhomberg, A. J., Ernst, S., Sasisekharan, R., and Biemann, K. (1998) Proc Natl Acad Sci USA 95(8), 4176-81). […] For the detection of mono- and di-sulfated disaccharide products, total electrophoresis time was 20 minutes. Each unsaturated disaccharide peak was detected by UV absorption at 232 nm.
(§2) Substrate specificity and kinetics experiments using different disaccharide substrates—For substrate specificity experiments, the following heparin disaccharide substrates were used: ΔU2SHNAc, ΔU2SHNAc,6S, ΔU2SHNS, and ΔU2SHNS,6S. In addition, the chondroitin disaccharides ΔU2SGalNAc,4S and ΔU2SGalNAc,6S were also studied. Disaccharide concentrations for each respective substrate were varied from 0.1 mM to 4 mM. Initial rates (Vo) were extrapolated from linear activities representing <20% substrate turnover and fit to pseudo first-order kinetics. Standard reactions included 50 mM imidazole, pH 6.5, 50 mM NaCl, 500 μM disaccharide, and 25 nM of enzyme (2-O ΔN^1-24) in a 20 μL reaction volume. The reaction was carried out for 30 seconds at 30° C.

2-O sulfatase [3] = experiment: desulfation of 2-O sulfated chondroitin disaccharides under extended and exhaustive conditions; type: biochemical, F. heparinum; conditions: 4× higher enzyme concentration, 20 minute period
Experimental: Substrate specificity and kinetics experiments using different disaccharide substrates—For substrate specificity experiments, the following heparin disaccharide substrates were used: ΔU2SHNAc, ΔU2SHNAc,6S, ΔU2SHNS, and ΔU2SHNS,6S. In addition, the chondroitin disaccharides ΔU2SGalNAc,4S and ΔU2SGalNAc,6S were also studied. Disaccharide concentrations for each respective substrate were varied from 0.1 mM to 4 mM. Initial rates (Vo) were extrapolated from linear activities representing <20% substrate turnover and fit to pseudo first-order kinetics. Standard reactions included 50 mM imidazole, pH 6.5, 50 mM NaCl, 500 μM disaccharide, and 25 nM of enzyme (2-O ΔN^1-24) in a 20 μL reaction volume. […] Desulfation at the 2-OH position of the disaccharide was measured by capillary electrophoresis. […] Activity was measured as moles of desulfated product formed and was calculated from the measured area of the product peak based on molar conversion factors empirically determined from standard curves. […] Each unsaturated disaccharide peak was detected by UV absorption at 232 nm. All the substrate saturation kinetics were measured under Michaelis-Menten conditions.
To determine whether either or both of these 2-O sulfated chondroitin disaccharides could be quantitatively desulfated under exhaustive conditions, we carried out an 18 hour incubation at 30° C. that included 5 mM of substrate and 5 μM enzyme.

[4] = biological target: T1, 2-O sulfatase (2-O ΔN^1-24); experiment: exolytic desulfation of oligosaccharides by 2-O sulfatase (CE compositional analysis and MALDI-MS); type: biochemical, F. heparinum
Experimental: Heparin compositional analyses by capillary electrophoresis and MALDI-MS—Approximately 10 μg of the AT-10 oligosaccharide were incubated with 100 picomoles of 2-O ΔN^1-24 in a 40 μL reaction volume at 30° C. 15 μL aliquots were removed at 4 hours and 17 hours and heat inactivated at 95° C. The oligosaccharide reaction products (along with 15 μL of a minus sulfatase control) were subjected to an exhaustive heparinase I and III digestion prior to CE-based compositional analysis. Desulfation of the decasaccharide was assayed in parallel by MALDI-MS using established methods (Rhomberg, A. J., Ernst, S., Sasisekharan, R., and Biemann, K. (1998) Proc Natl Acad Sci USA 95(8), 4176-81.).
Exolytic Action of the 2-O sulfatase—We addressed this important question using as a substrate the purified heparin-derived AT-10 decasaccharide ΔU2SHNS,6SI2SHNS,6SI2SHNS,6SIHNAc,6SGHNS,3S,6S. […] The substrate was first exhaustively treated with the 2-O sulfatase. The 2-O desulfated decasaccharide was then subjected to an exhaustive heparinase treatment.

[5] = substrate: O=C(O)C1=C[C@H](O)[C@@H](OS(=O)(=O)O)[C@H](O[C@H]2[C@H](O)[C@@H](NS(=O)(=O)O)C(O)O[C@@H]2COS(=O)(=O)O)O1; experiment: 2-O sulfatase assay and disaccharide substrate kinetics by capillary electrophoresis; type: biochemical, F. heparinum; conditions: other: 25 nM 2-O ΔN^1-24, 50 mM imidazole pH 6.5, 50 mM NaCl, 30° C., chondroitin disaccharide approximated from double reciprocal plots
Experimental: as §1, §2

[6] = substrate: CC(=O)N[C@H]1C(O)O[C@H](CO)[C@@H](O[C@@H]2OC(C(=O)O)=C[C@H](O)[C@H]2OS(=O)(=O)O)[C@@H]1O; experiment: as above; type: biochemical, F. heparinum; conditions: other: 25 nM 2-O ΔN^1-24, 50 mM imidazole pH 6.5, 50 mM NaCl, 30° C., chondroitin disaccharide approximated from double reciprocal plots
Experimental: as §1, §2

[7] = substrate: CC(=O)N[C@H]1C(O)O[C@H](COS(=O)(=O)O)[C@@H](O[C@@H]2OC(C(=O)O)=C[C@H](O)[C@H]2OS(=O)(=O)O)[C@@H]1O; experiment: as above; type: biochemical, F. heparinum; conditions: other: 25 nM 2-O ΔN^1-24, 50 mM imidazole pH 6.5, 50 mM NaCl, 30° C., chondroitin disaccharide approximated from double reciprocal plots
Experimental: as §1, §2

[8] = substrate: O=C(O)C1=C[C@H](O)[C@@H](OS(=O)(=O)O)[C@H](O[C@H]2[C@H](O)[C@@H](NS(=O)(=O)O)C(O)O[C@@H]2CO)O1; experiment: as above; type: biochemical, F. heparinum; conditions: other: 25 nM 2-O ΔN^1-24, 50 mM imidazole pH 6.5, 50 mM NaCl, 30° C., chondroitin disaccharide approximated from double reciprocal plots
Experimental: as §1, §2

[9] = −85° C., 10% glycerol
[10] = biochemical reaction conditions (pH, ionic strength, temperature) for recombinant 2-O sulfatase; conditions: for activity at outlying pH values of 5 and 8: pH 5.0 and 8.0
Experimental: FIG. 6 provides the in vitro biochemical reaction conditions for the recombinant 2-O sulfatase. Panel (A) illustrates the effect of pH. Sulfatase catalytic efficiency (kcat/Km) was measured as a function of varying pH from 5 to 8 using two overlapping buffers: 50 mM MES (solid circles) and 50 mM MOPS (open circles). Inset: Relative effect of three different assay buffers (each at pH 6.5) on optimal enzyme activity. 1.50 mM MES; 2.50 mM imidazole; 3.50 mM sodium phosphate. Panel (B) illustrates the effect of ionic strength. Shown here is % activity normalized to 50 mM NaCl. Panel (C) illustrates the effect of reaction temperature. Data is normalized to 30° C. activity (100%). The unsaturated disaccharide ΔU2SHNS was used in all three experiments.
For pilot experiments measuring the relative effect of ionic strength on 2-O sulfatase activity, the NaCl concentration was varied from 0.05 to 1 M in 50 mM MES buffer (pH 6.5) that included 500 μM of the disulfated disaccharide ΔU2SHNS,6S and 50 nM enzyme. The effect of pH on sulfatase activity was assessed as a function of catalytic efficiency by measuring kinetic parameters in the following two overlapping pH buffer systems ranging from 5.0 to 8.0: 50 mM MES at pH 5.0, 5.5, 6.5, and 7.0; 50 mM MOPS at pH 6.5, 7.0, 7.5 and 8.0. Assays included 25 nM enzyme, 50 mM NaCl and varying concentrations of the disulfated disaccharide substrate ΔU2SHNS. Km and kcat values were extrapolated from Vo vs. [S] curves fit to the Michaelis-Menten equation by a non-linear least squares regression and the relative kcat/Km ratios plotted as a function of buffer pH. Based on this profile, relative enzyme activity was also measured in four different buffers (MES, imidazole, ADA, and sodium phosphate) each present as a 50 mM concentration at pH 6.5. Relative activities were measured at a single saturating substrate concentration (4 mM) using ΔU2SHNS.
These parameters included pH, temperature, ionic strength, and possible divalent metal ion dependency.
37° C. was the default temperature at which all of the preliminary biochemical experiments were conducted. We measured both relative enzyme activity and stability as a function of varying reaction temperature (FIG. 6, Paenl (C)). The 2-O sulfatase was active over a fairly broad temperature range (25° C. to 37° C.), with optimal activity occurring at 30° C. Enzyme activity was compromised at 42° C. Enzyme stability at this temperature was likewise affected as assessed in pre-incubation experiments conducted at varying temperatures (30° C.→42° C.) prior to measuring 2-O sulfatase activity at 30° C.

Q: Which “effect of additive on enzyme activity” value (2-O sulfatase [1]) does the source give for `O=C(O)c1cc(SSc2ccc([N+](=O)[O-])c(C(=O)O)c2)ccc1[N+](=O)[O-]` [DTNB] here?
A: not inhibited

Q: Which “effect of additive on enzyme activity” value (2-O sulfatase [1]) does the source give for `[Cl][Mn][Cl]` [MnCl2] here?
A: no substantive effect

Q: For `O=C(O)C1=C[C@H](O)[C@@H](OS(=O)(=O)O)[C@H](O[C@H]2[C@H](O)[C@@H](NS(=O)(=O)O)C(O)O[C@@H]2COS(=O)(=O)O)O1` (some centres unmarked) [ΔU2SHNS,6S], which “position specificity of desulfation by the recombinant sulfatase” value ([2]; ΔU2SHNS,6S versus ΔUHNS,6S, CE) is on record?
A: only hydrolyzed a single sulfate, namely, the one found at the 2-OH position

Q: Which results are given for `CC(=O)N[C@H]1C(O)O[C@H](COS(=O)(=O)O)[C@H](O)[C@@H]1O[C@@H]1OC(C(=O)O)=C[C@H](O)[C@H]1OS(=O)(=O)O` (some centres unmarked) [ΔU2SGalNac.6S]?
A: Km ([2]; 25 nM 2-O ΔN^1-24, 50 mM imidazole pH 6.5, 50 mM NaCl, 30° C., chondroitin disaccharide approximated from double reciprocal plots): > 10000 µM; kcat ([2]; 25 nM 2-O ΔN^1-24, 50 mM imidazole pH 6.5, 50 mM NaCl, 30° C., substrate 0.1-4 mM, chondroitin disaccharide approximated from double reciprocal plots): <100 s⁻¹; hydrolysis under the standard kinetic conditions ([2]; same kinetic conditions as heparin disaccharides): albeit neglibly, hydrolyzed; also recorded: only neglibly hydrolyzed; substrate desulfated (2-O sulfatase [3]): approximately 40%

Q: With `[Ca+2].[Cl-].[Cl-]` [CaCl2] as the molecule, how does the “effect of additive on enzyme activity” value (2-O sulfatase [1]) read?
A: no substantive effect

Q: With `CC(=O)NC1C(OC2C(C(=O)O)OC(OC3C(COS(=O)(=O)O)OC(O)C(NS(=O)(=O)O)C3OS(=O)(=O)O)C(O)C2O)OC(COS(=O)(=O)O)C(OC2OC(C(=O)O)C(OC3OC(COS(=O)(=O)O)C(OC4OC(C(=O)O)C(OC5OC(COS(=O)(=O)O)C(OC6OC(C(=O)O)C(OC7OC(COS(=O)(=O)O)C(OC8OC(C(=O)O)=CC(O)C8OS(=O)(=O)O)C(O)C7NS(=O)(=O)O)C(O)C6OS(=O)(=O)O)C(O)C5NS(=O)(=O)O)C(O)C4OS(=O)(=O)O)C(O)C3NS(=O)(=O)O)C(O)C2O)C1O` [AT-10, ΔU2SHNS,6SI2SHNS,6SI2SHNS,6SIHNAc,6SGHNS,3S,6S] as the molecule, how does the “disappearance of disaccharide ΔU2SHNS,6S in compositional analysis” value ([4]; 2-O sulfatase then exhaustive heparinase treatment, CE) read?
A: by only one-third

Q: And the “sulfates lost after exhaustive 2-O sulfatase treatment (mass spectrometry)” value ([4]; MALDI-MS)?
A: Loss of a single sulfate

Q: With `O[C@@H](CS)[C@@H](O)CS` [DTT] as the molecule, how does the “effect of additive on enzyme activity” value (2-O sulfatase [1]) read?
A: not inhibited

Q: With `O=C(O)CN(CCN(CC(=O)O)CC(=O)O)CC(=O)O` [EDTA] as the molecule, how does the “effect of additive on enzyme activity” value (2-O sulfatase [1]) read?
A: largely unaffected

Q: What about the inhibition of activity (2-O sulfatase [1]; preincubation of enzyme with 5 mM EDTA, trisulfated disaccharide substrate) of the same molecule?
A: approximately 10%

Q: With `CC(=O)N[C@H]1C(O)O[C@H](CO)[C@H](OS(=O)(=O)O)[C@@H]1O[C@@H]1OC(C(=O)O)=C[C@H](O)[C@H]1OS(=O)(=O)O` (some centres unmarked) [ΔU2SGalNAc,4S] as the molecule, how does the substrate desulfated (2-O sulfatase [3]) read?
A: less than 10%

Q: For `[Cl-].[Cl-].[Mg+2]` [MgCl2], which “effect of additive on enzyme activity” value (2-O sulfatase [1]) is on record?
A: no substantive effect

B1: 2-O sulfatase (2-O ΔN^1-24) (Pedobacter heparinus DSM 2366) (protein)
chain: QTSKVAASRPNIIIIMTDQQTADAMSNAGNKDLHTPAMDVLAANGTRFTRAYCAQPLCTPSRSAIFSGKMPHETGFTGNTPEKDGQWPDSVLMMGKIFKAGGYKTGYVGKWHLPVPVTKVAQHGFETIENTGMGDYTDAVTPSQCANFIKKNKDNPFLLVASFLNPHDICEWARGDNLKMDVLDAAPDTAFCPKLPANWPIPAFEPAIVREQQKVNPRTYPSVGWNESQWRKYRWAYNRLVEKVDNYMAMVLGSLKKYGIEDNTIIIFTSDHGDGYAAHEWNQKQILYEEAARIPFIISKIGQWKARTDDQLVCNGIDIIPTICGFAGIAKPVGLKGLDLSKRIANPSVKLRDTLVIETDFADNELLLGIKGRAVITKDFKYIVYDKGEIREQLFDLEKDAGEMDNLAVKPAYKKKLNEMRAYLKLWCKQHQDSFYALKK
Q: For B1, which Km [5] is on record?
A: 87 µM

Q: And the kcat [5]?
A: 814 s⁻¹

Q: And the kcat/Km [5]?
A: 9.36e+06 M⁻¹ s⁻¹

Q: What about the Km [6] of the same molecule?
A: 4660 µM

Q: And the kcat [6]?
A: 673 s⁻¹

Q: And the kcat/Km [6]?
A: 144000 M⁻¹ s⁻¹

Q: And the Km [7]?
A: 515 µM

Q: And the kcat [7]?
A: 1670 s⁻¹

Q: And the kcat/Km [7]?
A: 3.25e+06 M⁻¹ s⁻¹

Q: What about the Km [8] of the same molecule?
A: 1060 µM

Q: What about the kcat [8] of the same molecule?
A: 911 s⁻¹

Q: And the kcat/Km [8]?
A: 859000 M⁻¹ s⁻¹

B2: 2-O sulfatase: recombinant F. heparinum 2-O sulfatase expressed in E. coli; experiments used the truncated enzyme with the histidine tag cleaved (protein, listed as Flavobacterium heparinum)
chain: MKMYKSKGWLIAMLILAGFGDAGAQTSKVAASRPNIIIIMTDQQTADAMSNAGNKDLHTPAMDVLAANGTRFTRAYCAQPLCTPSRSAIFSGKMPHETGFTGNTPEKDGQWPDSVLMMGKIFKAGGYKTGYVGKWHLPVPVTKVAQHGFETIENTGMGDYTDAVTPSQCANFNKKNKDNPFLLVASFLNPHDICEWARGDNLKMDVLDAAPDTAFCPKLPANWPIPAFEPAIVREQQKVNPRTYPSVGWNESQWRKYRWAYNRLVEKVDNYMAMVLGSLKKYGIEDNTIIIFTSDHGDGYAAHEWNQKQILYEEAARIPFIISKIGQWKARTDDQLVCNGIDIIPTICGFAGIAKPVGLKGLDLSKRIANPSVKLRDTLVIETDFADNELLLGIKGRAVITKDFKYIVYDKGEIREQLFDLEKDAGEMDNLAVKPAYKKKLNEMRAYLKLWCKQHQDSFYALKK
Q: Which results are given for B2?
A: activity after long-term storage, freezing and thawing [9]: without any subsequent loss of activity; pH activity range ([10]; 50 mM MES / MOPS, pH 5 to 8): 6.0-7.0; pH optimum of activity (catalytic efficiency) ([10]; 50 mM MES / MOPS, pH 5 to 8): 6.5; enzyme activity at 42° C. ([10]; 42° C.): compromised; NaCl concentration of optimal activity ([10]; NaCl titration): approximately 50 mM; activity at outlying pH values of 5 and 8 [10]: essentially no activity; activity at outlying pH values of 5 and 8 ([10]; listed as flavobacterial sulfatase): essentially inactive; temperature of optimal activity ([10]; varying reaction temperature): 30 °C
